Sequences and labels used below:
B1: CE115HA000 S52cF one-arm antibody (antibody, human IgG1, kappa, L234A L235A, N297A, name in Kabat numbering)
heavy: QVQLVESGGGVVQPGRSLRLSCAASGFTFSNAWMHWVRQAPGKGLEWVAQIKAKFNNYATYYAESVKGRFTISRDDSKNSLYLQMNSLKTEDTAVYYCRYVHYGAYYGVDAWGQGTTVTVSSASTKGPSVFPLAPSSKSTSGGTAALGCLVKDYFPEPVTVSWNSGALTSGVHTFPAVLQSSGLYSLSSVVTVPSSSLGTQTYICNVNHKPSNTKVDKKVEPKSCDKTHTCPPCPAPEAAGGPSVFLFPPKPKDTLMISRTPEVTCVVVDVSHEDPEVKFNWYVDGVEVHNAKTKPREEQYASTYRVVSVLTVLHQDWLNGKEYKCKVSNKALPAPIEKTISKAKGQPREPQVYTLPPSRCELTKNQVSLSCAVKGFYPSDIAVEWESNGQPENNYKTTPPVLDSDGSFFLVSKLTVDKSRWQQGNVFSCSVMHEALHNHYTQKSLSLSPDYKDDDDK
chain: EPKSSDKTHTCPPCPAPELLGGPSVFLFPPKPKDTLMISRTPEVTCVVVDVSHEDPEVKFNWYVDGVEVHNAKTKPREEQYNSTYRVVSVLTVLHQDWLNGKEYKCKVSNKALPAPIEKTISKAKGQPREPQVCTLPPSRDELTKNQVSLWCLVKGFYPSDIAVEWESNGQPENNYKTTPPVLDSDGSFFLYSKLTVDKSRWQQGNVFSCSVMHEALHNRYTQKSLSLSP
light: DIVMTQSPLSLPVTPGEPASISCRSSQSLVHSNRNTYLHWYQQKPGQAPRLLIYKVSNRFSGVPDRFSGSGSGTDFTLKISRVEAEDVGVYYCGQGTQVPYTFGQGTKLEIKRTVAAPSVFIFPPSDEQLKSGTASVVCLLNNFYPREAKVQWKVDNALQSGNSQESVTEQDSKDSTYSLSSTLTLSKADYEKHKVYACEVTHQGLSSPVTKSFNRGEC
B2: CE115HA000 S52cL one-arm antibody (antibody, human IgG1, kappa, L234A L235A, N297A, name in Kabat numbering)
heavy: QVQLVESGGGVVQPGRSLRLSCAASGFTFSNAWMHWVRQAPGKGLEWVAQIKAKLNNYATYYAESVKGRFTISRDDSKNSLYLQMNSLKTEDTAVYYCRYVHYGAYYGVDAWGQGTTVTVSSASTKGPSVFPLAPSSKSTSGGTAALGCLVKDYFPEPVTVSWNSGALTSGVHTFPAVLQSSGLYSLSSVVTVPSSSLGTQTYICNVNHKPSNTKVDKKVEPKSCDKTHTCPPCPAPEAAGGPSVFLFPPKPKDTLMISRTPEVTCVVVDVSHEDPEVKFNWYVDGVEVHNAKTKPREEQYASTYRVVSVLTVLHQDWLNGKEYKCKVSNKALPAPIEKTISKAKGQPREPQVYTLPPSRCELTKNQVSLSCAVKGFYPSDIAVEWESNGQPENNYKTTPPVLDSDGSFFLVSKLTVDKSRWQQGNVFSCSVMHEALHNHYTQKSLSLSPDYKDDDDK
chain: EPKSSDKTHTCPPCPAPELLGGPSVFLFPPKPKDTLMISRTPEVTCVVVDVSHEDPEVKFNWYVDGVEVHNAKTKPREEQYNSTYRVVSVLTVLHQDWLNGKEYKCKVSNKALPAPIEKTISKAKGQPREPQVCTLPPSRDELTKNQVSLWCLVKGFYPSDIAVEWESNGQPENNYKTTPPVLDSDGSFFLYSKLTVDKSRWQQGNVFSCSVMHEALHNRYTQKSLSLSP
light: DIVMTQSPLSLPVTPGEPASISCRSSQSLVHSNRNTYLHWYQQKPGQAPRLLIYKVSNRFSGVPDRFSGSGSGTDFTLKISRVEAEDVGVYYCGQGTQVPYTFGQGTKLEIKRTVAAPSVFIFPPSDEQLKSGTASVVCLLNNFYPREAKVQWKVDNALQSGNSQESVTEQDSKDSTYSLSSTLTLSKADYEKHKVYACEVTHQGLSSPVTKSFNRGEC
B3: CE115HA000 S52cK one-arm antibody (antibody, human IgG1, kappa, L234A L235A, N297A, name in Kabat numbering)
heavy: QVQLVESGGGVVQPGRSLRLSCAASGFTFSNAWMHWVRQAPGKGLEWVAQIKAKKNNYATYYAESVKGRFTISRDDSKNSLYLQMNSLKTEDTAVYYCRYVHYGAYYGVDAWGQGTTVTVSSASTKGPSVFPLAPSSKSTSGGTAALGCLVKDYFPEPVTVSWNSGALTSGVHTFPAVLQSSGLYSLSSVVTVPSSSLGTQTYICNVNHKPSNTKVDKKVEPKSCDKTHTCPPCPAPEAAGGPSVFLFPPKPKDTLMISRTPEVTCVVVDVSHEDPEVKFNWYVDGVEVHNAKTKPREEQYASTYRVVSVLTVLHQDWLNGKEYKCKVSNKALPAPIEKTISKAKGQPREPQVYTLPPSRCELTKNQVSLSCAVKGFYPSDIAVEWESNGQPENNYKTTPPVLDSDGSFFLVSKLTVDKSRWQQGNVFSCSVMHEALHNHYTQKSLSLSPDYKDDDDK
chain: EPKSSDKTHTCPPCPAPELLGGPSVFLFPPKPKDTLMISRTPEVTCVVVDVSHEDPEVKFNWYVDGVEVHNAKTKPREEQYNSTYRVVSVLTVLHQDWLNGKEYKCKVSNKALPAPIEKTISKAKGQPREPQVCTLPPSRDELTKNQVSLWCLVKGFYPSDIAVEWESNGQPENNYKTTPPVLDSDGSFFLYSKLTVDKSRWQQGNVFSCSVMHEALHNRYTQKSLSLSP
light: DIVMTQSPLSLPVTPGEPASISCRSSQSLVHSNRNTYLHWYQQKPGQAPRLLIYKVSNRFSGVPDRFSGSGSGTDFTLKISRVEAEDVGVYYCGQGTQVPYTFGQGTKLEIKRTVAAPSVFIFPPSDEQLKSGTASVVCLLNNFYPREAKVQWKVDNALQSGNSQESVTEQDSKDSTYSLSSTLTLSKADYEKHKVYACEVTHQGLSSPVTKSFNRGEC
B4: CE115HA000 S52cQ one-arm antibody (antibody, human IgG1, kappa, L234A L235A, N297A, name in Kabat numbering)
heavy: QVQLVESGGGVVQPGRSLRLSCAASGFTFSNAWMHWVRQAPGKGLEWVAQIKAKQNNYATYYAESVKGRFTISRDDSKNSLYLQMNSLKTEDTAVYYCRYVHYGAYYGVDAWGQGTTVTVSSASTKGPSVFPLAPSSKSTSGGTAALGCLVKDYFPEPVTVSWNSGALTSGVHTFPAVLQSSGLYSLSSVVTVPSSSLGTQTYICNVNHKPSNTKVDKKVEPKSCDKTHTCPPCPAPEAAGGPSVFLFPPKPKDTLMISRTPEVTCVVVDVSHEDPEVKFNWYVDGVEVHNAKTKPREEQYASTYRVVSVLTVLHQDWLNGKEYKCKVSNKALPAPIEKTISKAKGQPREPQVYTLPPSRCELTKNQVSLSCAVKGFYPSDIAVEWESNGQPENNYKTTPPVLDSDGSFFLVSKLTVDKSRWQQGNVFSCSVMHEALHNHYTQKSLSLSPDYKDDDDK
chain: EPKSSDKTHTCPPCPAPELLGGPSVFLFPPKPKDTLMISRTPEVTCVVVDVSHEDPEVKFNWYVDGVEVHNAKTKPREEQYNSTYRVVSVLTVLHQDWLNGKEYKCKVSNKALPAPIEKTISKAKGQPREPQVCTLPPSRDELTKNQVSLWCLVKGFYPSDIAVEWESNGQPENNYKTTPPVLDSDGSFFLYSKLTVDKSRWQQGNVFSCSVMHEALHNRYTQKSLSLSP
light: DIVMTQSPLSLPVTPGEPASISCRSSQSLVHSNRNTYLHWYQQKPGQAPRLLIYKVSNRFSGVPDRFSGSGSGTDFTLKISRVEAEDVGVYYCGQGTQVPYTFGQGTKLEIKRTVAAPSVFIFPPSDEQLKSGTASVVCLLNNFYPREAKVQWKVDNALQSGNSQESVTEQDSKDSTYSLSSTLTLSKADYEKHKVYACEVTHQGLSSPVTKSFNRGEC
B5: CE115HA000 S52cG one-arm antibody (antibody, human IgG1, kappa, L234A L235A, N297A, name in Kabat numbering)
heavy: QVQLVESGGGVVQPGRSLRLSCAASGFTFSNAWMHWVRQAPGKGLEWVAQIKAKGNNYATYYAESVKGRFTISRDDSKNSLYLQMNSLKTEDTAVYYCRYVHYGAYYGVDAWGQGTTVTVSSASTKGPSVFPLAPSSKSTSGGTAALGCLVKDYFPEPVTVSWNSGALTSGVHTFPAVLQSSGLYSLSSVVTVPSSSLGTQTYICNVNHKPSNTKVDKKVEPKSCDKTHTCPPCPAPEAAGGPSVFLFPPKPKDTLMISRTPEVTCVVVDVSHEDPEVKFNWYVDGVEVHNAKTKPREEQYASTYRVVSVLTVLHQDWLNGKEYKCKVSNKALPAPIEKTISKAKGQPREPQVYTLPPSRCELTKNQVSLSCAVKGFYPSDIAVEWESNGQPENNYKTTPPVLDSDGSFFLVSKLTVDKSRWQQGNVFSCSVMHEALHNHYTQKSLSLSPDYKDDDDK
chain: EPKSSDKTHTCPPCPAPELLGGPSVFLFPPKPKDTLMISRTPEVTCVVVDVSHEDPEVKFNWYVDGVEVHNAKTKPREEQYNSTYRVVSVLTVLHQDWLNGKEYKCKVSNKALPAPIEKTISKAKGQPREPQVCTLPPSRDELTKNQVSLWCLVKGFYPSDIAVEWESNGQPENNYKTTPPVLDSDGSFFLYSKLTVDKSRWQQGNVFSCSVMHEALHNRYTQKSLSLSP
light: DIVMTQSPLSLPVTPGEPASISCRSSQSLVHSNRNTYLHWYQQKPGQAPRLLIYKVSNRFSGVPDRFSGSGSGTDFTLKISRVEAEDVGVYYCGQGTQVPYTFGQGTKLEIKRTVAAPSVFIFPPSDEQLKSGTASVVCLLNNFYPREAKVQWKVDNALQSGNSQESVTEQDSKDSTYSLSSTLTLSKADYEKHKVYACEVTHQGLSSPVTKSFNRGEC
B6: CE115HA000 S52cV one-arm antibody (antibody, human IgG1, kappa, L234A L235A, N297A, name in Kabat numbering)
heavy: QVQLVESGGGVVQPGRSLRLSCAASGFTFSNAWMHWVRQAPGKGLEWVAQIKAKVNNYATYYAESVKGRFTISRDDSKNSLYLQMNSLKTEDTAVYYCRYVHYGAYYGVDAWGQGTTVTVSSASTKGPSVFPLAPSSKSTSGGTAALGCLVKDYFPEPVTVSWNSGALTSGVHTFPAVLQSSGLYSLSSVVTVPSSSLGTQTYICNVNHKPSNTKVDKKVEPKSCDKTHTCPPCPAPEAAGGPSVFLFPPKPKDTLMISRTPEVTCVVVDVSHEDPEVKFNWYVDGVEVHNAKTKPREEQYASTYRVVSVLTVLHQDWLNGKEYKCKVSNKALPAPIEKTISKAKGQPREPQVYTLPPSRCELTKNQVSLSCAVKGFYPSDIAVEWESNGQPENNYKTTPPVLDSDGSFFLVSKLTVDKSRWQQGNVFSCSVMHEALHNHYTQKSLSLSPDYKDDDDK
chain: EPKSSDKTHTCPPCPAPELLGGPSVFLFPPKPKDTLMISRTPEVTCVVVDVSHEDPEVKFNWYVDGVEVHNAKTKPREEQYNSTYRVVSVLTVLHQDWLNGKEYKCKVSNKALPAPIEKTISKAKGQPREPQVCTLPPSRDELTKNQVSLWCLVKGFYPSDIAVEWESNGQPENNYKTTPPVLDSDGSFFLYSKLTVDKSRWQQGNVFSCSVMHEALHNRYTQKSLSLSP
light: DIVMTQSPLSLPVTPGEPASISCRSSQSLVHSNRNTYLHWYQQKPGQAPRLLIYKVSNRFSGVPDRFSGSGSGTDFTLKISRVEAEDVGVYYCGQGTQVPYTFGQGTKLEIKRTVAAPSVFIFPPSDEQLKSGTASVVCLLNNFYPREAKVQWKVDNALQSGNSQESVTEQDSKDSTYSLSSTLTLSKADYEKHKVYACEVTHQGLSSPVTKSFNRGEC

T1 sequence (P07766 23-126 limits assumed): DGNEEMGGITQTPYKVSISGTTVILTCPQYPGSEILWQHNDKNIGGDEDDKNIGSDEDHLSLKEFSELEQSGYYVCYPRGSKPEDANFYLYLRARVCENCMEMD

This assay addresses T1, CD3ε homodimer protein (human, UniProt P07766 23-126, limits assumed, sulfo-tag or biotin label in the ECL assays; amine-coupled to the chip in SPR).
T1 construct: also called human CD3ε homodimer protein; CD3 (CD3ε)
As to the kind of experiment: SPR Biacore T200; CD3ε homodimer on CM4 chip.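 Further: Single-residue variant antibodies injected as analyte over CD3ε homodimer immobilized by amine coupling, run at 25 °C in HBS-EP+ buffer.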 Background: SPR reads the build-up and loss of mass on a sensor chip optically.
Turning to B1, the “ratio of amounts bound Z=Y/X (altered form / CE115HA000)” value is 1.13. For B2, the “ratio of amounts bound Z=Y/X (altered form / CE115HA000)” value stood at 0.98.

On to B3, for which the “ratio of amounts bound Z=Y/X (altered form / CE115HA000)” value was found to be 1.19.

Consider B4, for which the “ratio of amounts bound Z=Y/X (altered form / CE115HA000)” value amounted to 1.04. In the case of B5 it was 0.97; in that of B6, 0.93.

For the origin of these results see patent US20260049138A1 (Chugai, published 2026).
